Consider three proteins from paper PMC10687086, “Illuminating the mechanism and allosteric behavior of NanoLuc luciferase” (Nature Communications, 2023).

Common to all, as to test: luminescence, global fit of progress curves
Common to all, as to assay type: biochemical, Oplophorus gracilirostris
Holding throughout (conditions): 100 mM potassium phosphate pH 7.50, 37 °C, co-substrate O2, pH 7.5

Substrate in data set [1]: O=c1c(Cc2ccco2)nc2c(Cc3ccccc3)[nH]c(-c3ccccc3)cn1-2
From the text:
(§1) luminescence, global fit of progress curves on NanoLuc luciferase (NLuc)

Substrate in data set [2]: Oc1ccc(Cc2nc3c(Cc4ccccc4)nc(-c4ccc(O)cc4)cn3c2O)cc1
Text: as §1

Substrate in data set [3]: O=c1c(Cc2ccco2)nc2c(Cc3ccccc3)[nH]c(-c3ccccc3)cn1-2
The source holds these as a separate data set.

Substrate in data set [4]: Oc1ccc(Cc2nc3c(Cc4ccccc4)nc(-c4ccc(O)cc4)cn3c2O)cc1
The source holds these as a separate data set.

Residue numbers refer to the chain shown, from its start. In names and notes the source's numbering stands.

B1: NanoLuc luciferase (NLuc) (Oplophorus gracilirostris; A31E/A60N/A81I/F95D/I117V/K70R/L54V/L99Q/M102K/N193R/P142E/Q151K/Q38R/Q45L/V71I/Y121A/Y165I) (protein)
chain: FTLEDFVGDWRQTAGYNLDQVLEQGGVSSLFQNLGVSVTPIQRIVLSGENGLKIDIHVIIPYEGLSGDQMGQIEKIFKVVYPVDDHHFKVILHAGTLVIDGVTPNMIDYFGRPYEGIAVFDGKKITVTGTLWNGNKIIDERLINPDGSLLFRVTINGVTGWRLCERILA
notes: engineered 19 kDa catalytic subunit of OLuc (16 residues mutated); monomer in solution, homotetramer in crystals
On to B1, for which, in data set [1], the Km (as a rule, the substrate concentration at which the rate is half of its maximum) worked out at 1.29 ± 0.02 µM; the kcat – broadly, the maximal rate divided by the concentration of active sites – is 0.519 ± 0.007 s⁻¹; the kcat/Km (in general, the turnover number divided by the Michaelis constant) came out at 402000 ± 6000 M⁻¹ s⁻¹. Besides, in data set [2], the Km is 3.74 ± 0.09 µM, the kcat is 0.225 ± 0.004 s⁻¹ and the kcat/Km came out at 60000 ± 1000 M⁻¹ s⁻¹.

B2: NanoLuc luciferase (NLuc) (Oplophorus gracilirostris; A31E/A60N/A81I/D36R/F95D/H84A/I117V/K116R/K70R/L54V/L99Q/M102K/N193R/P142E/Q151K/Q38R/Q45L/V71I/Y165I) (protein)
chain: B1 chain with D9R, H57A, K89R, A94Y
notes: as for B1
For the protein B2, in data set [2], the Km is 0.77 ± 0.07 µM, the kcat is 40 ± 4 s⁻¹ and the kcat/Km turned out to be 7e+07 ± 7e+06 M⁻¹ s⁻¹.

B3: NanoLuc luciferase (NLuc) (Oplophorus gracilirostris; A31E/A60N/A81I/D36R/F95D/I117V/K116R/K70R/L54V/L99Q/M102K/N193R/P142E/Q151K/Q38R/Q45L/V71I/Y165I) (protein)
chain: B1 chain with D9R, K89R, A94Y
notes: as for B1
For the protein B3, in data set [3], the Km was 0.157 ± 0.009 µM, the kcat was 5.2 ± 0.1 s⁻¹ and the kcat/Km amounted to 3.3e+07 ± 2e+06 M⁻¹ s⁻¹. In data set [4], the Km came to 0.46 ± 0.01 µM, the kcat worked out at 16.8 ± 0.6 s⁻¹ and the kcat/Km is 3.7e+07 ± 1e+06 M⁻¹ s⁻¹.
